Assays:
glucokinase-YN155 [1] = molecular target: glucokinase-YN155 (UniProt P17712); test: BiFC assay; conditions: COS1 cells, 25 mM glucose, without dibutyryl cAMP; parent: est. 36; read off a plot
glucokinase-YN155 [2] = molecular target: glucokinase-YN155 (UniProt P17712); test: BiFC assay; conditions: COS1 cells, 25 mM glucose, read off a plot

Sequence of UniProt P17712 (P17712 whole entry): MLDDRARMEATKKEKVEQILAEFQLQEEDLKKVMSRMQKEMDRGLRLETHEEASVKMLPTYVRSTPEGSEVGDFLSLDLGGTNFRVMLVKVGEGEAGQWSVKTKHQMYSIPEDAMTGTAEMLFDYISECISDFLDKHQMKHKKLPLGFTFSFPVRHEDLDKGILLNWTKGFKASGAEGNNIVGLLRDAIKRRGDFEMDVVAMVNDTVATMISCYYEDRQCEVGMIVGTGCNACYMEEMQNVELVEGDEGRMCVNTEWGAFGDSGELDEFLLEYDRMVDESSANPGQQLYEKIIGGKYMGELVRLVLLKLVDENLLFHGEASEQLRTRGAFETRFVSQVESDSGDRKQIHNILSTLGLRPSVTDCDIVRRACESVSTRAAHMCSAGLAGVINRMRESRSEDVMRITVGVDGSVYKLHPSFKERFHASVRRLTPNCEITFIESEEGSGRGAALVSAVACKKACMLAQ

Substance	response (% transfected cells) (glucokinase-YN155 [1])	response (% transfected cells) (glucokinase-YN155 [2]; 50 μM dibutyryl cAMP for 1 h, parent: est. 28)	response (% transfected cells) (glucokinase-YN155 [2]; without dibutyryl cAMP, parent: est. 36)
wild-type PFK2/FBPase2-YC155 (from UniProt P07953) S32D	39	–	–
wild-type PFK2/FBPase2-YC155 (from UniProt P07953) S32A	39	33	39
